For one substance, stoichiometry N results are on record in PMC10030352.

In this assay the target is human NCC_(cryo1) (human) (UniProt P55017). As to the kind of experiment: cryo-EM structure.

In the case of “human NCC_(cryo1) (from UniProt P55017 1-1021) (natural protein)”, the stoichiometry N (as a rule, the number of molecules, sites or subunits per partner or assembly) is 2.
